Values quoted from earlier work, collected in paper PMC9147092.
Where two headings read alike, the source gives them in different places.

Key:
BiP (Homo sapiens) [1] = target: BiP (Homo sapiens) (UniProt P11021)
BiP (Homo sapiens) [2] = target: BiP (Homo sapiens) (UniProt P11021); remark: listed apart in the source
BiP (Homo sapiens) [3] = target: BiP (Homo sapiens) (UniProt P11021); remark: listed apart in the source
ERdj2 (Homo sapiens) = ERdj2 (Homo sapiens) (UniProt Q9UGP8)
Sequence of UniProt Q9UGP8 (Q9UGP8 whole entry): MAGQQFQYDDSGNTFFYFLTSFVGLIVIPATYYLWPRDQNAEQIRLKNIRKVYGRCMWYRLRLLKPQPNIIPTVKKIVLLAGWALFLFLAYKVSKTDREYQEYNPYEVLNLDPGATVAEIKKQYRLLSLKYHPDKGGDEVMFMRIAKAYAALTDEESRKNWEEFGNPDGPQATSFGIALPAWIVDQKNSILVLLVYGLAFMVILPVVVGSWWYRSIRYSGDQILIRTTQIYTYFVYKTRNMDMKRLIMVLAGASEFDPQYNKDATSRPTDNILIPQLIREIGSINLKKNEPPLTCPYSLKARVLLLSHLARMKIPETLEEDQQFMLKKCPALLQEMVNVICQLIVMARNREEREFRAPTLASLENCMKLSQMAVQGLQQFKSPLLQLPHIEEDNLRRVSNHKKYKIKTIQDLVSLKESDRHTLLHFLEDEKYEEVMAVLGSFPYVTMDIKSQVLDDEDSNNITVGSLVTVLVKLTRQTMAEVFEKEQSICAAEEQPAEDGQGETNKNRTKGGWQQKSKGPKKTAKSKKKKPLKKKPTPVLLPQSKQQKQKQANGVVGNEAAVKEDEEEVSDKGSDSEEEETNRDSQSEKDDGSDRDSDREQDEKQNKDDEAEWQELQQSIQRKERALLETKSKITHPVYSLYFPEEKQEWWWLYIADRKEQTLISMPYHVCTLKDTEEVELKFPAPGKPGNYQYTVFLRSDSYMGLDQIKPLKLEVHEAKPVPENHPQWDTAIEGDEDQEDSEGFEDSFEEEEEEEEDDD

Sequence of UniProt P11021 (P11021 19-654): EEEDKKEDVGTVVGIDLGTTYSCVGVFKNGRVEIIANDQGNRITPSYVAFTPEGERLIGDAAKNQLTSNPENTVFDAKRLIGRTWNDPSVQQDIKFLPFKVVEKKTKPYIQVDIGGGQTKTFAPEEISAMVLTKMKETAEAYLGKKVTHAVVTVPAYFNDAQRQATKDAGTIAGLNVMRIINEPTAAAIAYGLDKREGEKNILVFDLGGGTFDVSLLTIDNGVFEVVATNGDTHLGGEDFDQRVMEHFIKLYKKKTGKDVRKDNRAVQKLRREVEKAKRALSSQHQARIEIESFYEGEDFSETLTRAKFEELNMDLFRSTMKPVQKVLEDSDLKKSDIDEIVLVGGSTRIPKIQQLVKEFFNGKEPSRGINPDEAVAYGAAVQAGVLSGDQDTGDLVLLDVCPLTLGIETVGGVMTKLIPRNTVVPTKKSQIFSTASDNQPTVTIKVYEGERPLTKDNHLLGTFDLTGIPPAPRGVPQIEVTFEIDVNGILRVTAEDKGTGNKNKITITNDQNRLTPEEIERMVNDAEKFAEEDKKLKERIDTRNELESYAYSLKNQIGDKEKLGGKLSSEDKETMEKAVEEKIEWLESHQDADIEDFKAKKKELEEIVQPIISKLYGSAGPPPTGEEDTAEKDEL

## ERdj1 (from UniProt Q96KC8)
BiP (Homo sapiens) [1]
  Kd: 570 nM

## ERdj6 (from UniProt Q13217)
BiP (Homo sapiens) [2]
  Kd: 5000 nM

## PERK luminal domain (from UniProt Q9NZJ5)
BiP (Homo sapiens) [3]
  Kd: 830 nM

## Sec62 (from UniProt Q99442)
ERdj2 (Homo sapiens)
  Kd: 5 nM
